T1: HLA-B*2705 (human, UniProt P01889 25-302 at identity 0.93))
T1 construct: MHC class I molecule assembled with candidate peptides in the REVEAL assay (ProImmune)
T1 MHC heavy: not shown

T2: HLA-B*2705 (human), P01889
T2 chain: not shown


Molecular target: T1, HLA-B*2705
Experiment: REVEAL MHC-peptide binding assay, incorporation into HLA-B*2705

Point of comparison: QLEDIRLDG (Opticin nonamer) [Peptide I.D. 12 QLEDIRLDG], “% Positive Control (REVEAL binding score)” value 0 % of positive control. Against it:
- FNALQYLRL [Peptide I.D. 20 FNALQYLRL] — higher, 1.81 % of positive control
- LEDIRLDGN [Peptide I.D. 13 LEDIRLDGN] — higher, 2.17 % of positive control
- FKRFNALQY [Peptide I.D. 17 FKRFNALQY] — higher, 0.15 % of positive control
- RQLEDIRLD [Peptide I.D. 11 RQLEDIRLD] — higher, 0.5 % of positive control
- YFKRFNALQ [Peptide I.D. 16 YFKRFNALQ] — higher, 0.47 % of positive control
- IDLQDFFSS [Peptide I.D. 32 IDLQDFFSS] — higher, 0.13 % of positive control
- NLRSIDLQD [Peptide I.D. 28 NLRSIDLQD] — higher, 0.17 % of positive control
- LRSIDLQDF [Peptide I.D. 29 LRSIDLQDF] — higher, 0.08 % of positive control
- EYFKRFNAL [Peptide I.D. 15 EYFKRFNAL] — higher, 0.48 % of positive control
- DLQDFFSSL [Peptide I.D. 33 DLQDFFSSL] — higher, 0.35 % of positive control
- QYLRLSHNE [Peptide I.D. 24 QYLRLSHNE] — higher, 0.5 % of positive control
- HKHTRRQLE [Peptide I.D. 6 HKHTRRQLE] — the same, 0 % of positive control
- SIDLQDFFS [Peptide I.D. 31 SIDLQDFFS] — higher, 0.26 % of positive control
- DEYFKRFNA [Peptide I.D. 14 DEYFKRFNA] — higher, 0.06 % of positive control
- ALQYLRLSH [Peptide I.D. 22 ALQYLRLSH] — higher, 0.13 % of positive control
- HTRRQLEDI [Peptide I.D. 8 HTRRQLEDI] — higher, 0.04 % of positive control
- LQDFFSSLI [Peptide I.D. 34 LQDFFSSLI] — higher, 0.11 % of positive control
- RSIDLQDFF [Peptide I.D. 30 RSIDLQDFF] — higher, 0.08 % of positive control
- NALQYLRLS [Peptide I.D. 21 NALQYLRLS] — higher, 0.11 % of positive control
- RRRWRRLTV [Peptide I.D. 36 RRRWRRLTV] — higher, 44 % of positive control
- TRRQLEDIR [Peptide I.D. 9 TRRQLEDIR] — higher, 0.02 % of positive control
- ARGQPGVMG [Peptide I.D. 37 ARGQPGVMG] — the same, 0 % of positive control
- RFNALQYLR [Peptide I.D. 19 RFNALQYLR] — higher, 1.2 % of positive control
- KHTRRQLED [Peptide I.D. 7 KHTRRQLED] — higher, 0.04 % of positive control
- LNLRSIDLQ [Peptide I.D. 27 LNLRSIDLQ] — higher, 0.11 % of positive control

Molecular target: T2, HLA-B*2705 (human), P01889
Experiment: as above

DPCTTWCDA (modifications not checked) [Peptide I.D. 35 …] showed a % Positive Control (REVEAL binding score) (% of positive control) of 2.18.

Source: patent US20160280750A1 (NEWSOUTH INNOVATIONS, published 2016)
